One molecule from PMC7132122 can be followed below.

Series [1] deals with DHX15ΔN;NKRF G-patch V582G (Homo sapiens;Homo sapiens, UniProt O43143;O15226 113-795;541-603, |V582G). Nature of the series: fluorescence polarization. Background: Polarisation of emitted light reports the rotation of a fluorescent probe.
Series [2] addresses DHX15ΔN;NKRF G-patch wt (Homo sapiens;Homo sapiens, UniProt O43143;O15226 113-795;541-603, |). Nature of the series: fluorescence polarization.

DHX15ΔN;NKRF G-patch wt, sequence (O43143 113-795, stated change not applied, chain 1 of 2): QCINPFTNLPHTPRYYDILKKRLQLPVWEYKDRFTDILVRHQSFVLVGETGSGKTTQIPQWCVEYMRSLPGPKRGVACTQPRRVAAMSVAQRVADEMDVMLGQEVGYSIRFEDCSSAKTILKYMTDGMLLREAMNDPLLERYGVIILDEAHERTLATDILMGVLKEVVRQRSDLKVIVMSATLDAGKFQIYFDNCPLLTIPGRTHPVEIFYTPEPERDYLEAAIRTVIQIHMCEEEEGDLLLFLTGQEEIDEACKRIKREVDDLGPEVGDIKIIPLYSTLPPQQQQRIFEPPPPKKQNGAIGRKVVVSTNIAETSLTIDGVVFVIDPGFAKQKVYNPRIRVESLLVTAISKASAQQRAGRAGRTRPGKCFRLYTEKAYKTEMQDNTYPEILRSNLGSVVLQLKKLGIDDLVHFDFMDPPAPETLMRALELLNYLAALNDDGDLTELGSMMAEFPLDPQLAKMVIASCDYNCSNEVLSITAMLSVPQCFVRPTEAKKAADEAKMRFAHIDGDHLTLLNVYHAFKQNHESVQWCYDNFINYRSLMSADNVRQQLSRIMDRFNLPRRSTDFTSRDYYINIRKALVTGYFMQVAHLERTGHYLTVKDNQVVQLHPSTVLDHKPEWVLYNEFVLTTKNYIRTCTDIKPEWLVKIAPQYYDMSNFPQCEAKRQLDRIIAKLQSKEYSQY
DHX15ΔN;NKRF G-patch wt, sequence (O15226 541-603, stated change not applied, chain 2 of 2): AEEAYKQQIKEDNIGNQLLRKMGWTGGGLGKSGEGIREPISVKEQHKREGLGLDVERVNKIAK
DHX15ΔN;NKRF G-patch V582G, sequence (O43143 113-795, chain 1 of 2): as the sequence (O43143 113-795, stated change not applied, chain 1 of 2) above
DHX15ΔN;NKRF G-patch V582G, sequence (O15226 541-603 V582G, chain 2 of 2): as the sequence (O15226 541-603, stated change not applied, chain 2 of 2) above, with V42G counted along it

As to UUUUUUUUUUUU (ssRNA) [FAM-U12 RNA], the results for the binding signal in series [1] and in series [2] were 1.2 fold increase of affinity and ~1 fold of Kd without nucleotide, respectively.
